We go through one substance from patent US20070048219A1.

The assay addresses IL-8 receptors on human neutrophils. The experiment in a line: unlabeled IL-8 displaces 125I-IL-8 from IL-8 receptors on human neutrophils; value in the legend box without a column head, IC50.

In the case of “recombinant human IL-8, (ser-IL-8)72 (from UniProt P10145 28-99) (ligand)”, the IC50 – broadly, the concentration at which inhibition is half-maximal – is 0.078 nM.
